{
  "source": "paper PMC8274241",
  "binders": {"B1": {"name": "Lsh crRNA (56-nt as named) + RNA6 (8-nt anti-tag) (mixed)", "RNA 1": "GGCCACCCCAAUAUCGAAGGGGACUAAAACUAGAUUGCUGUUCUACCAAGUAAUCCAU", "RNA 2": "GAUGGAUUACUUGGUAGAACAGCAAUCUAGUUUUAGU"}, "B2": {"name": "Lsh crRNA alone (structured_RNA)", "RNA": "GGCCACCCCAAUAUCGAAGGGGACUAAAACUAGAUUGCUGUUCUACCAAGUAAUCCAU"}, "B3": {"name": "Lsh crRNA + RNA4 (no anti-tag) (mixed)", "RNA 1": "GGCCACCCCAAUAUCGAAGGGGACUAAAACUAGAUUGCUGUUCUACCAAGUAAUCCAU", "RNA 2": "GAUGGAUUACUUGGUAGAACAGCAAUCUACAAAAUCA"}},
  "test_in_all_cases": "cryo-EM",
  "key": {"LshCas13a [1]": {"biological_target": "T1, LshCas13a (Leptotrichia shahii, UniProt P0DOC6 1-1389)", "T1 sequence": "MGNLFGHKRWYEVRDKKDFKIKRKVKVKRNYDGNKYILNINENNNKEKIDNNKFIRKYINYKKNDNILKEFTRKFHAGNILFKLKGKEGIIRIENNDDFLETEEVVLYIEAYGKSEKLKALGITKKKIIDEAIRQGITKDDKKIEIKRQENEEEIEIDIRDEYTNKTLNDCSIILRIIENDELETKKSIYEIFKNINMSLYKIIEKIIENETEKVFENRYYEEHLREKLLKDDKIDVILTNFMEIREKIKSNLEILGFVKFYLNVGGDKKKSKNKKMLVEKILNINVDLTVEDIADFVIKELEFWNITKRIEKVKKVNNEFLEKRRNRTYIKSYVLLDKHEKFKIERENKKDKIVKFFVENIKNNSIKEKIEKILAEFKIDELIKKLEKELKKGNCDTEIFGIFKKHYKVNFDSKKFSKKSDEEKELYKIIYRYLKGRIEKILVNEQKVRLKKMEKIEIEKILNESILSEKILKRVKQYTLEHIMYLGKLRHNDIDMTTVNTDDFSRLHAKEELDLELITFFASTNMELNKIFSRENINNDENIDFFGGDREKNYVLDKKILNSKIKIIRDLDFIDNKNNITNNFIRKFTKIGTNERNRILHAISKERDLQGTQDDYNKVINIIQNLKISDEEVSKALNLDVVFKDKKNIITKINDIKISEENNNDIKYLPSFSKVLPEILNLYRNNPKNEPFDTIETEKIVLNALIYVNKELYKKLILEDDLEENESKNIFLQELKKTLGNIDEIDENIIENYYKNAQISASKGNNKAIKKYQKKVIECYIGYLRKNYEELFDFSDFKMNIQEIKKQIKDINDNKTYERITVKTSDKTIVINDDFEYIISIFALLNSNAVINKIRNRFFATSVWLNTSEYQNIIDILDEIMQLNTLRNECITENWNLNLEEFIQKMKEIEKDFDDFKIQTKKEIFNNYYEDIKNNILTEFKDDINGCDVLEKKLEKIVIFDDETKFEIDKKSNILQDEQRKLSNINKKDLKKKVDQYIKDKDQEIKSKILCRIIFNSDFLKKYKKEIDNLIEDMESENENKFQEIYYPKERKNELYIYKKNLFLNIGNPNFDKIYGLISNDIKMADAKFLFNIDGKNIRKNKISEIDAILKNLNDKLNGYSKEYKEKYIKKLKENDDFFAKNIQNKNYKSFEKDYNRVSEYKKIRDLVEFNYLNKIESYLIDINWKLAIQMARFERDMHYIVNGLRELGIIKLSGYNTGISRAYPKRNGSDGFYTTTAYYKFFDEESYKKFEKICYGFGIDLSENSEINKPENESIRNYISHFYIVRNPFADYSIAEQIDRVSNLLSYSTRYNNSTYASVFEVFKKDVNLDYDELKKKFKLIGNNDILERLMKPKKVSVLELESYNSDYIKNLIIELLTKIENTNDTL"}, "LshCas13a [2]": {"biological_target": "T1, LshCas13a", "remark": "listed apart in the source"}, "LshCas13a [3]": {"biological_target": "T1, LshCas13a", "remark": "listed apart in the source"}},
  "note": "Read-outs that look alike come from different tables or passages of the source.",
  "data": [
    {"binder": "B1", "values": [
      {"measurement": "binding result", "setting": "LshCas13a [1]", "result": "binds"}
    ]},
    {"binder": "B2", "values": [
      {"measurement": "binding result", "setting": "LshCas13a [2]", "result": "binds"}
    ]},
    {"binder": "B3", "values": [
      {"measurement": "binding result", "setting": "LshCas13a [3]", "result": "binds"}
    ]}
  ]
}
